Data set [1] deals with MfPC β subunit K581A mutant, purified alone (Methylobacillus flagellatus).
The target in data set [2] is Methylobacillus flagellatus pyruvate carboxylase (MfPC) α subunit, N-terminal hexa-histidine tag, co-expressed with the β subunit (Methylobacillus flagellatus). As to the kind of experiment: SEC; gel filtration of two-subunit PCs purified from E. coli co-expression, with Coomassie-stained SDS-PAGE of the purified complexes and of known amounts of α and β subunits; also with an extra plasmid expressing only α. (Size exclusion chromatography separates by hydrodynamic size, large species first.)

Data set [3] has as its target T1, SaPC (single-chain pyruvate carboxylase) (Staphylococcus aureus, UniProt A0A0H3JRU9).
T1 construct: gene pycA; single-chain homo-tetramer, ~570 kDa by AUC; expression not described here
T1 sequence (A0A0H3JRU9 1-1150): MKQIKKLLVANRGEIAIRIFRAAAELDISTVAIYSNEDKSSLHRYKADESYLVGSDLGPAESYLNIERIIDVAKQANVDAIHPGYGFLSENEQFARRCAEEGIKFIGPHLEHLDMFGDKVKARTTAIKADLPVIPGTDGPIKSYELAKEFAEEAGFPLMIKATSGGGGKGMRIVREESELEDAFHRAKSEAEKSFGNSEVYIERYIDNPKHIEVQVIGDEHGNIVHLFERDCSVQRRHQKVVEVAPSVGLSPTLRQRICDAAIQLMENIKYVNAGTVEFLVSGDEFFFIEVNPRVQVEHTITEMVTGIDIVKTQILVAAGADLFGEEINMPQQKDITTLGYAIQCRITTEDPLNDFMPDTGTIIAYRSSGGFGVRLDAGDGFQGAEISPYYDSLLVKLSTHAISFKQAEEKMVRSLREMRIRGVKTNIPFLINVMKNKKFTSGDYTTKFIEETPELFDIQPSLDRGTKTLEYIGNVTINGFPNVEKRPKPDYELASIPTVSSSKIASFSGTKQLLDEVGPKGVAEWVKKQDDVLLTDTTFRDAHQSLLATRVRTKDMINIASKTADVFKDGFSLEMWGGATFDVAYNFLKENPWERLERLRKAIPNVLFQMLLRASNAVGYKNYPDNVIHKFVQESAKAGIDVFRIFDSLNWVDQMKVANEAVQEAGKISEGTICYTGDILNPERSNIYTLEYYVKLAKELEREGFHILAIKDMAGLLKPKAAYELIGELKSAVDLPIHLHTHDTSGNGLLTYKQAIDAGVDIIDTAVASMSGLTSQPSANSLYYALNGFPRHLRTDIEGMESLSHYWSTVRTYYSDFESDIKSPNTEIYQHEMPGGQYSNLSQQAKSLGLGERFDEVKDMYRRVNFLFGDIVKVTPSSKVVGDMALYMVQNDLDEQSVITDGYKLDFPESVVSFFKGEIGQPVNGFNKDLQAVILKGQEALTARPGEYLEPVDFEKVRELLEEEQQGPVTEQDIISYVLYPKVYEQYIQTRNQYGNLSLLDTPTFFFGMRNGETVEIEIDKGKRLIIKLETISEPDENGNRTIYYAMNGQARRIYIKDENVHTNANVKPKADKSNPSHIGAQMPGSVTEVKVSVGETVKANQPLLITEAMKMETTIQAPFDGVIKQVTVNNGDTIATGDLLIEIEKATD
As to the kind of experiment: malate dehydrogenase-coupled PC activity with and without acetyl-CoA. Format: biochemical. To be noted: allosteric activator.

Data set [4] deals with Pseudomonas aeruginosa pyruvate carboxylase (PaPC) α subunit (Pseudomonas aeruginosa). As to the kind of experiment: AUC; sedimentation velocity, 0.5 mg/ml, 20 °C, 42,000 r.p.m., 20 mM Tris pH 8.0, 150 mM NaCl, continuous c(s) distribution (SEDFIT).
For data set [5], the target named is MfPC α subunit with the B sub-domain of BC (residues 131–201) replaced by a Gly–Ser–Ser–Gly linker (Methylobacillus flagellatus). As to the kind of experiment: crystal structure; mutant MfPC (B domain deletion in α; K419A, E421A, E422A in β), 3.0 Å, space group R32, one α2β4 oligomer in the asymmetric unit; sitting drop, 20 °C, 2.5 mM pyruvate, 19% PEG3350, 2% tacsimate pH 6.0, 3% ethanol.

For data set [6], the target named is MfPC β subunit with the surface entropy reduction mutations K419A, E421A and E422A, untagged (Methylobacillus flagellatus). The data set is described as above.
Data set [7] has as its target Methylobacillus flagellatus pyruvate carboxylase (MfPC) α subunit, N-terminal hexa-histidine tag, co-expressed with the β subunit (Methylobacillus flagellatus). The data set is described as follows: crystal structure; 'wild-type' MfPC (K419A, E421A, E422A in β), 6.6 Å, space group P3(1)21, one α and two β in the asymmetric unit, α2β4 by a crystallographic two-fold axis; 2.5 mM ATP and 2.5 mM pyruvate, 1.3 M ammonium sulfate, 0.1 M sodium citrate pH 6.0.

Data set [8] addresses MfPC β subunit with the surface entropy reduction mutations K419A, E421A and E422A, untagged (Methylobacillus flagellatus). The data set is described as above.
Data set [9] concerns the target MfPC α subunit expressed and purified alone (pET28a, N-terminal hexa-histidine tag) (Methylobacillus flagellatus). The data set is described as follows: SEC; analytical gel filtration of separately purified MfPC α and β subunits, alone and mixed in 1:2, 1:1 or 2:1 molar ratios; peak fractions on SDS-PAGE.
Data set [10] concerns the molecule itself. The data set is described as follows: AUC; sedimentation velocity, 0.5 mg/ml, 20 °C, 42,000 r.p.m., 20 mM Tris pH 8.0, 150 mM NaCl, continuous c(s) distribution (SEDFIT).

With “MfPC β subunit A49T mutant, purified alone (enzyme)”, the pyruvate carboxylase activity of hybrid holoenzymes (A49T and K581A β subunits mixed in a 1:1 ratio, then α subunit added), against the wild-type holoenzyme (% of wild-type activity) in data set [1] is 29.

As a reminder, the stoichiometry N is a count of units in the complex or per binding partner. Turning to “Methylobacillus flagellatus pyruvate carboxylase (MfPC) β subunit, untagged, co-expressed with the α subunit (enzyme)”, in data set [2], the stoichiometry N was 2 β per α. `CC(=O)SCCNC(=O)CCNC(=O)[C@H](O)C(C)(C)COP(=O)(O)OP(=O)(O)OC[C@H]1O[C@@H](n2cnc3c(N)ncnc32)[C@H](O)[C@@H]1OP(=O)(O)O` [acetyl-CoA]: the activation result in [3] is “When acetyl-CoA is present, SaPC activity becomes comparable to those of the two-subunit PCs”. In the case of “Pseudomonas aeruginosa pyruvate carboxylase (PaPC) β subunit (enzyme)”, the stoichiometry N in data set [4] was 2 β per α. For the molecule “MfPC β subunit with the surface entropy reduction mutations K419A, E421A and E422A, untagged (enzyme)”, the stoichiometry N is 2 β per α in data set [5], 2 in [6], 2 β per α in data set [7] and 2 in [8]. In the case of “MfPC β subunit expressed and purified alone (pET28a, N-terminal hexa-histidine tag) (enzyme)”, the stoichiometry N in data set [9] is 2 β per α.

B1: Staphylococcus aureus pyruvate carboxylase (SaPC), single-chain (enzyme, UniProt A0A0H3JRU9 1-1150, looked up)
chain: MKQIKKLLVANRGEIAIRIFRAAAELDISTVAIYSNEDKSSLHRYKADESYLVGSDLGPAESYLNIERIIDVAKQANVDAIHPGYGFLSENEQFARRCAEEGIKFIGPHLEHLDMFGDKVKARTTAIKADLPVIPGTDGPIKSYELAKEFAEEAGFPLMIKATSGGGGKGMRIVREESELEDAFHRAKSEAEKSFGNSEVYIERYIDNPKHIEVQVIGDEHGNIVHLFERDCSVQRRHQKVVEVAPSVGLSPTLRQRICDAAIQLMENIKYVNAGTVEFLVSGDEFFFIEVNPRVQVEHTITEMVTGIDIVKTQILVAAGADLFGEEINMPQQKDITTLGYAIQCRITTEDPLNDFMPDTGTIIAYRSSGGFGVRLDAGDGFQGAEISPYYDSLLVKLSTHAISFKQAEEKMVRSLREMRIRGVKTNIPFLINVMKNKKFTSGDYTTKFIEETPELFDIQPSLDRGTKTLEYIGNVTINGFPNVEKRPKPDYELASIPTVSSSKIASFSGTKQLLDEVGPKGVAEWVKKQDDVLLTDTTFRDAHQSLLATRVRTKDMINIASKTADVFKDGFSLEMWGGATFDVAYNFLKENPWERLERLRKAIPNVLFQMLLRASNAVGYKNYPDNVIHKFVQESAKAGIDVFRIFDSLNWVDQMKVANEAVQEAGKISEGTICYTGDILNPERSNIYTLEYYVKLAKELEREGFHILAIKDMAGLLKPKAAYELIGELKSAVDLPIHLHTHDTSGNGLLTYKQAIDAGVDIIDTAVASMSGLTSQPSANSLYYALNGFPRHLRTDIEGMESLSHYWSTVRTYYSDFESDIKSPNTEIYQHEMPGGQYSNLSQQAKSLGLGERFDEVKDMYRRVNFLFGDIVKVTPSSKVVGDMALYMVQNDLDEQSVITDGYKLDFPESVVSFFKGEIGQPVNGFNKDLQAVILKGQEALTARPGEYLEPVDFEKVRELLEEEQQGPVTEQDIISYVLYPKVYEQYIQTRNQYGNLSLLDTPTFFFGMRNGETVEIEIDKGKRLIIKLETISEPDENGNRTIYYAMNGQARRIYIKDENVHTNANVKPKADKSNPSHIGAQMPGSVTEVKVSVGETVKANQPLLITEAMKMETTIQAPFDGVIKQVTVNNGDTIATGDLLIEIEKATD
notes: single-chain pyruvate carboxylase, Staphylococcus aureus; Used as a control in the ultracentrifugation
As for B1, in [10], the “stoichiometry N” value worked out at 4.
